Measurements from patent publication US20090202549A1 (published 2009).
Changes are numbered by the printed parent chain.

Tests used:
Experiment in all cases: capture assay, relative binding affinity of p40 mAb to p40 muteins (FIG. 4)
[1] = molecular target: T1, human p40 single mutant M23T (human, UniProt P29460 23-328)
T1 construct: transiently expressed in HEK293E cells, supernatant used
T1 sequence: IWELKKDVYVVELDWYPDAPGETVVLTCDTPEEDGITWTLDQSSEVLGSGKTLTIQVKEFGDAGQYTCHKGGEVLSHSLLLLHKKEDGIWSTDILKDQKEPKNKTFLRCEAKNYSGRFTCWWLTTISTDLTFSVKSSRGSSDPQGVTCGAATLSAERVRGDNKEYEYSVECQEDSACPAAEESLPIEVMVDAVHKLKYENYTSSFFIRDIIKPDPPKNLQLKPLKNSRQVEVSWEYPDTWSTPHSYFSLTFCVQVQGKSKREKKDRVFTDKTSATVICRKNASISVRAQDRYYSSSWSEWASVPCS
Procedure: (§1) In brief, MSD high bind plates (Meso Scale Discovery, MD) were coated with 5 μl of a capture monoclonal antibody (5 μg/ml) at room temperature for 1 hour. […] One-hundred and fifty (150) μl of 5% MSD Blocker A buffer was added to each well and incubated for 1 hr at room temperature. Plates were washed three times with 0.1 M HEPES buffer (pH 7.4). These protein-charged ELISA plates were incubated with 25 μl of different transiently expressed p40 mutant supernatants (1:10 dilution with 0.1 M HEPES buffer, pH 7.4) for 1 hr at room temperature. The plates were washed three times with 0.1 M HEPES buffer (pH 7.4). Twenty-five (25) μl of different concentrations of MSD Sulfo-TAG labeled p40 mAb, ranging from 0 to 20 μg/ml, were dispensed to micro-wells. After incubation for 2 hrs shaking at room temperature, plates were washed 3 times with 0.1 M HEPES buffer (pH 7.4). One hundred and fifty (150) μl of diluted MSD Read Buffer T was dispensed into each well and the plates were analyzed with a SECTOR imager (MSD).
(§2) The relative binding affinity of p40 mAb to different mutant proteins was further analyzed by a capture assay. […] The other mutations, M23T, L40T and S43R, in the interface, each reduced binding by approximately 40%. E45A reduced binding by about 70%.

[2] = molecular target: T2, human p40 single mutant E45A (human, UniProt P29460 23-328)
T2 construct: transiently expressed in HEK293E cells, supernatant used
T2 sequence: T1 sequence with T23M, E45A
Procedure: as §1, §2

[3] = molecular target: T3, human p40 single mutant L40T (human, UniProt P29460 23-328)
T3 construct: transiently expressed in HEK293E cells, supernatant used
T3 sequence: T1 sequence with T23M, L40T
Procedure: as §1, §2

[4] = molecular target: T4, human p40 single mutant S43R (human, UniProt P29460 23-328)
T4 construct: transiently expressed in HEK293E cells, supernatant used
T4 sequence: T1 sequence with T23M, S43R
Procedure: as §1, §2

reduction of binding (relative binding affinity) [1]: ~40% | reduction of binding (relative binding affinity) [2]: ~70% | reduction of binding (relative binding affinity) [3]: ~40% | reduction of binding (relative binding affinity) [4]: ~40%
B1: p40 mAb (fully human monoclonal antibody directed against the p40 subunit of human IL-12 and IL-23) (antibody, V domains shown)
VH: EVQLVQSGAEVKKPGESLKISCKGSGYSFTTYWLGWVRQMPGKGLDWIGIMSPVDSDIRYSPSFQGQVTMSVDKSITTAYLQWNSLKASDTAMYYCARRRPGQGYFDFWGQGTLVTVSS
VL: DIQMTQSPSSLSASVGDRVTITCRASQGISSWLAWYQQKPEKAPKSLIYAASSLQSGVPSRFSGSGSGTDFTLTISSLQPEDFATYYCQQYNIYPYTFGQGTKLEIKR
notes: Fully human IgG made in a mammalian cell line; also called IL-12 p40 antibody; IL-12p40 antibody
